In the RNAGym collection of RNA variant scans (doi:10.7554/elife.80360) one finds self-cleavage data, which are given here for 167 variants.

B1: HDV Ribozyme (parent)
chain: GGCCGGCAUGGUCCCAGCCUCCUCGCUGGCGCCGGCUGGGCAACAUUCCGAGGGGACCGUCCCCUCGGUAAUGGCGAAUGGGACCCA

Variants of B1 are the subject of the data set. Description: self-cleavage, relative activity (ratio to wild type); higher = more cleavage; co-transcriptional.
As to G40A C49U, the self-cleavage stood at 0.95. Next, G40A C49A: 0.95; G38C G82C: 0.222. As to G38C G82U, the self-cleavage was found to be 0.162. For G38A G54U, the self-cleavage amounted to 0.073. As for G38A G54C, the self-cleavage turned out to be 0.237. The value for G39A A51C was 0.389; that for G39A G73U was 0.0845. The value for G39A G73A was 0.0801; that for G39U G76U was 0.819; that for U37G C57A was 0.0978. As for G40A A56U, the self-cleavage was found to be 1.02. For U37C U60G, the self-cleavage stood at 0.906. As to U37G C49G, the self-cleavage was found to be 0.196. Turning to U37G C49U, the self-cleavage was 0.268. For U37G C49A, the self-cleavage amounted to 0.0573. Turning to G39U C41A, the self-cleavage was determined as 0.719. In the case of G39A A77C, the self-cleavage amounted to 0.108. On to G39A A77U, for which the self-cleavage stood at 0.176. For the variant G38C C66G, the self-cleavage is 0.203. The value for G38C C66A was 0.189; that for U37C G53C was 1.2.

In the case of U37C G53A, the self-cleavage worked out at 1.04.

As for G38A C86G, the self-cleavage stood at 0.107. Next, G39U A56G: 0.659; G38A G52C: 0.0692; G38A G52A: 0.173. U37G C75A: the self-cleavage came out at 0.156. As to U37G C75U, the self-cleavage is 0.0594.

With U37C C84U, the self-cleavage was 0.655. Next, G38U G55U: 0.21; G38U G55C: 0.19.

With G38U C75A, the self-cleavage was found to be 0.208.

G38A A77U: the self-cleavage was 0.0845. G38A A77G: the self-cleavage was found to be 0.0852. Turning to U37G C84G, the self-cleavage was found to be 0. As for G39C C58A, the self-cleavage amounted to 0.521. The value for G39C C58U was 0.0923; that for U37G A70C was 0.312; that for G39U G40U was 0.451. On to G38A G74C, for which the self-cleavage was found to be 0.161. Consider G38A G82C, for which the self-cleavage was 0.262. Next, G38A G82A: 0.0482; G39C G68C: 0.339; G38U C44U: 0.126.

Turning to G38C A78C, the self-cleavage stood at 0. Next, G39A C66U: 0.472; G39C G53A: 0.308. Turning to U37C G59A, the self-cleavage was determined as 1.1. Consider G38A C58A, for which the self-cleavage is 0.115. On to G38A C58G, for which the self-cleavage was determined as 0.141.

For G39C C84U, the self-cleavage stood at 0.196. Consider U37A G38C, for which the self-cleavage is 0.0923. Next, G38U A45C: 0.181. Next, G40A C57A: 1.18; G38U A70U: 0.277. The value for G38C A51U was 0.181; that for G38C A51C was 0.277.

Take G39U C44G: the self-cleavage was 0.113.

Take G39C A78C: the self-cleavage turned out to be 0.125. In the case of G39C A78G, the self-cleavage came to 0.0573.

U37A U72A: the self-cleavage turned out to be 0.125. Take G38A U79G: the self-cleavage worked out at 0.151. The value for G38U C85U was 0.269. As for G40A C64U, the self-cleavage worked out at 0.925. Next, G40A A87C: 0.981; U37G C62A: 0.0594; G38A G81A: 0.227.

Consider G38A A45G, for which the self-cleavage was determined as 0.155. Next, G38A A45U: 0.107.

Turning to U37A G74U, the self-cleavage amounted to 0.208. Turning to G38C G73A, the self-cleavage worked out at 0.185. Next, G40A G52C: 0.986. For G38U G54C, the self-cleavage was 0.4.

With G39C C41U, the self-cleavage amounted to 0.554. As to G39C C41A, the self-cleavage was 0.802. The value for G38U U65C was 0.415. The value for U37C C86A was 0.974.

Consider G39U U47C, for which the self-cleavage came to 0.393.

On to G39A G50U, for which the self-cleavage turned out to be 0.441. As for G39C A87U, the self-cleavage worked out at 0.229. With G38C G40U, the self-cleavage turned out to be 0.0332. Turning to U37C G74U, the self-cleavage was found to be 0.332. Regarding G39A A70C, the self-cleavage was 0.277. The value for G39A G55A was 0.683; that for G39A G55U was 0.356. Regarding U37C G50A, the self-cleavage was determined as 1.01.

Take U37C G50C: the self-cleavage was 1.07. Turning to G38C A83G, the self-cleavage came out at 0.201. Take G38C A83C: the self-cleavage came out at 0.107. Consider G38C A83U, for which the self-cleavage amounted to 0.0361. With U37G U60A, the self-cleavage stood at 0.0504. For U37A C85A, the self-cleavage worked out at 0.332.

With G39U U69C, the self-cleavage is 0.769.

Turning to G39U U69A, the self-cleavage turned out to be 0.492. The value for G38U C61A was 0.248; that for G38A A87U was 0.121; that for G38C G59C was 0.266. With G38C C84G, the self-cleavage amounted to 0.0489. Consider U37C G38A, for which the self-cleavage is 0.0354. U37C G76C: the self-cleavage is 1.19. The value for G40A A42U was 0.802; that for G39U C63A was 0.598; that for U37C C44U was 0.529. G39C A70U: the self-cleavage came to 0.0308. As to G39C A70G, the self-cleavage turned out to be 0.151.

For G38U A43C, the self-cleavage worked out at 0.0811.

Take G38U A78C: the self-cleavage was 0.086. For G38U A78U, the self-cleavage is 0.0911. The value for U37G U65G was 0.0573.

Take G38A G59C: the self-cleavage came to 0.0256. The value for G38A G59U was 0.182; that for U37G A45U was 0. Turning to G38U G40C, the self-cleavage turned out to be 0.0923. Consider G38U A56C, for which the self-cleavage was determined as 0.266. The value for G40A A77C was 0.427; that for G38A G68A was 0.21; that for G39C C57U was 0.345. Next, G39C C57G: 0.415; U37A G39A: 0; U37A G39U: 0.122.

As to G38C U47A, the self-cleavage was found to be 0.249. Next, U37C A42C: 0.115. Next, U37C A43G: 0.332.

Turning to G38U G50C, the self-cleavage amounted to 0.225. With G39U A77G, the self-cleavage was 0.564. The value for G39U A77C was 0.233; that for G38C C49A was 0.237; that for G38A A71C was 0.032. The value for G38A A71G was 0.177; that for G40A A51C was 0.984. For U37A G55U, the self-cleavage is 0.0723.

Turning to G38C C57U, the self-cleavage was determined as 0.282. As to G39U C75A, the self-cleavage turned out to be 0.166. For the variant G39U C75G, the self-cleavage came out at 0.0978. Next, G39U C75U: 0.0923; U37G G52A: 0.106. Next, U37G G52C: 0.178; G38C A87C: 0.26. In the case of U37C G39U, the self-cleavage worked out at 0.564. Consider G38U G81A, for which the self-cleavage amounted to 0.128. Take G38U G81C: the self-cleavage was found to be 0.0678. The value for G38A C49A was 0.172.

With G38A C49G, the self-cleavage is 0.151.

Take G38U G74A: the self-cleavage was 0.0248. Next, U37A C86A: 0.256; U37A C86U: 0.35. Next, G39U G82U: 0.155; G39U A51U: 0.611; G38A C44A: 0.0678. Next, G38A C44U: 0.136. Regarding G39U G73U, the self-cleavage is 0.211. For G38U C58U, the self-cleavage was 0.295. Next, G39A C44A: 0.0405; G39A C44G: 0.108; U37G G81C: 0. With U37G G81U, the self-cleavage was found to be 0.0489. Next, G38A C64G: 0.142; U37G U72A: 0. U37G U72C: the self-cleavage worked out at 0.119.

With G38C G54U, the self-cleavage amounted to 0.185. For the variant G39C C66U, the self-cleavage is 0.136.

U37G C86G: the self-cleavage came to 0.111.

Consider U37G C86U, for which the self-cleavage turned out to be 0.249. Consider G39C G67A, for which the self-cleavage is 0.134. The value for G39C G67C was 0.232; that for U37G C44U was 0.119.
